The values below come from patent US20140322196A1 (priority 2011, published 2014).

This assay deals with A/Parma/24/09 (Brisbane-like) (oseltamivir-resistant) H1N1. In kind it is cell-based, Influenza A virus. As to conditions: A/Parma/24/09 H1N1.

B1: bLf: Lactoferrin from bovine milk, purchased from Morinaga Milk Industries, deprived of endotoxin (protein, UniProt P24627 20-708, looked up)
Lactotransferrin: APRKNVRWCTISQPEWFKCRRWQWRMKKLGAPSITCVRRAFALECIRAIAEKKADAVTLDGGMVFEAGRDPYKLRPVAAEIYGTKESPQTHYYAVAVVKKGSNFQLDQLQGRKSCHTGLGRSAGWIIPMGILRPYLSWTESLEPLQGAVAKFFSASCVPCIDRQAYPNLCQLCKGEGENQCACSSREPYFGYSGAFKCLQDGAGDVAFVKETTVFENLPEKADRDQYELLCLNNSRAPVDAFKECHLAQVPSHAVVARSVDGKEDLIWKLLSKAQEKFGKNKSRSFQLFGSPPGQRDLLFKDSALGFLRIPSKVDSALYLGSRYLTTLKNLRETAEEVKARYTRVVWCAVGPEEQKKCQQWSQQSGQNVTCATASTTDDCIVLVLKGEADALNLDGGYIYTAGKCGLVPVLAENRKSSKHSSLDCVLRPTEGYLAVAVVKKANEGLTWNSLKDKKSCHTAVDRTAGWNIPMGLIVNQTGSCAFDEFFSQSCAPGADPKSRLCALCAGDDQGLDKCVPNSKEKYYGYTGAFRCLAEDVGDVAFVKNDTVWENTNGESTADWAKNLNREDFRLLCLDGTRKPVTEAQSCHLAVAPNHAVVSRSDRAAHVKQVLLHQQALFGKNGKNCPDKFCLFKSETKNLLFNDNTECLAKLGGRPTYEEYLGTEYVTAIANLKKCSTSPLLEACAFLTR
Regarding B1, the HI titre is on record as 6 nM.
